The results in this text go back to patent US20250345413A1 (VIRAVAXX, published 2025).

The target in the test is T1, human ACE2 protein (GenScript) (human, UniProt Q9BYF1 18-740).
T1 construct: also called angiotensin-converting enzyme 2; hACE2
The experiment in a line: ELISA, plate-bound ACE2, detection by anti-His antibody. On the technique in general: ELISA stands for enzyme-linked immunosorbent assay.

T1 sequence (Q9BYF1 18-740 limits assumed): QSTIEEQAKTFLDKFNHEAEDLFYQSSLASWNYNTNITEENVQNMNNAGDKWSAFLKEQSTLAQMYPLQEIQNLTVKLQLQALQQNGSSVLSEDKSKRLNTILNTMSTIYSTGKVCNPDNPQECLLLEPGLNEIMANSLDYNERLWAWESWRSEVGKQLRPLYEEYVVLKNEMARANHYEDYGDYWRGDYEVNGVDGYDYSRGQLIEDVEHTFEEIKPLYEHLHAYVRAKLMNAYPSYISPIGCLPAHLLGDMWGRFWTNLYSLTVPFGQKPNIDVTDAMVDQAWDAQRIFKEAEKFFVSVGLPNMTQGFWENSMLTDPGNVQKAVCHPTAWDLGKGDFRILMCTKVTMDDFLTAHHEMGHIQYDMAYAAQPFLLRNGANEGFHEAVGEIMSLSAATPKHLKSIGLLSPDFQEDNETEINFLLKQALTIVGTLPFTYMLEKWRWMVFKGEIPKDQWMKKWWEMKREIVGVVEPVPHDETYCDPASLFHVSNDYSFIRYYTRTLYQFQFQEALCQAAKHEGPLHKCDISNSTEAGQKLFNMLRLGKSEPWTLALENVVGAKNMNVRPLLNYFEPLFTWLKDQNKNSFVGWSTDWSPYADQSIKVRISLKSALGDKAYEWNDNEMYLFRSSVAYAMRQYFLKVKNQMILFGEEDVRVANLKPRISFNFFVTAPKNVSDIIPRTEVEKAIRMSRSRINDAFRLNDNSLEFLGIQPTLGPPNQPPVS

B1: cysteine-containing, His-tagged recombinant Parietaria allergen, Par j 2 (other)
chain: EEACGKVVQDIMPCLHFVKGEEKEPSKECCSGTKKLSEEVKTTEQKREACKCIVRATKGISGIKNELVAEVPKKCDIKTTLPPITADFDCSKIQSTIFRGYY
notes: also called negative control protein
In the case of B1, the binding result is given as “no binding”.
